T1: hpIgR_D2-D3
T1 construct: HIS-tagged construct from HEK293 cells; also called human pIgR extracellular domain 2-domain 3 (D2-D3); hD2-D3
T1 HIS-tagged domain construct: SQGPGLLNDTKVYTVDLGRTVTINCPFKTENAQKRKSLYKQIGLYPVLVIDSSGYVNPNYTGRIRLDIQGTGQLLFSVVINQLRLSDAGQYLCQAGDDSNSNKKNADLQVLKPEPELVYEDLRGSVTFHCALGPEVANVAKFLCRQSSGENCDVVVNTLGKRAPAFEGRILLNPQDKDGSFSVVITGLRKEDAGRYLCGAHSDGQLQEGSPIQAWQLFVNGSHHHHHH

T2: hpIgR_D3
T2 construct: HIS-tagged construct from HEK293 cells; also called human pIgR extracellular domain 3 (D3); hD3
T2 HIS-tagged domain construct: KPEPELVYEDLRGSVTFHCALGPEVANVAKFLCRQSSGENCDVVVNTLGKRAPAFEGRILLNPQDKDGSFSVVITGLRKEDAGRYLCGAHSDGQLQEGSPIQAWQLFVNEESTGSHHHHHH

T3: human pIgR extracellular domain 4-domain 5 (D4-D5) (human, UniProt P01833 350-565)
T3 construct: HIS-tagged construct made in HEK293 cells; also called hpIgR domains 4-5
T3 chain: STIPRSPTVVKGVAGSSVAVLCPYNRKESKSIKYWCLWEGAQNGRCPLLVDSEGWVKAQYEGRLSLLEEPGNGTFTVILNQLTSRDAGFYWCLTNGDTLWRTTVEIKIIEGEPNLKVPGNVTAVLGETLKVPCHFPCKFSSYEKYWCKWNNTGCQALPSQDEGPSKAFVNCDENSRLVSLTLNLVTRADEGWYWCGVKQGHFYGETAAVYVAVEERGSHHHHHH

B1: VHH4-linker-mono-Fc protein (Fc fusion)
chain: EVQVVESGGGLVQAGGSLRLSCAVSGTSVSSNAMGWYRQAPGKQREWVGFIDRIATTTIATSVKGRFAITRDNAKNTVYLQMSGLKPEDTAVYYCNHPLTARWGQGTQVTVSSEPKTPKPQPQPQLQPQPNPTTESKSPKSPAPELLGGPSVFLFPPKPKDTLMISRTPEVTCVVVDVSHEDPEVKFNWYVDGVEVHNAKTKPREEQYNSTYRVVSVLTVLHQDWLNGKEYKCKVSNKALPAPIEKTISKAKGQPREPQVYTKPPSREEMTKNQVSLSCLVKGFYPSDIAVEWESNGQPENNYKTTVPVLDSDGSFRLASYLTVDKSRWQQGNVFSCSVMHEALHNHYTQKSLSLSPGK
notes: also called VHH4-mono-Fc; hpIgR_073
B2: VHH6-linker-mono-Fc protein (Fc fusion)
chain: EVQLVESGGGLVQAGGSLRLSCAVSGSSVSSDAMGWYRQAPGNQRAWVAFISGGGTTTYADSVKGRFTISRDNTKNTVYLHMNSLKPEDTAVYYCNHPLTSRWGQGTQVTVSSEPKTPKPQPQPQLQPQPNPTTESKSPKSPAPELLGGPSVFLFPPKPKDTLMISRTPEVTCVVVDVSHEDPEVKFNWYVDGVEVHNAKTKPREEQYNSTYRVVSVLTVLHQDWLNGKEYKCKVSNKALPAPIEKTISKAKGQPREPQVYTKPPSREEMTKNQVSLSCLVKGFYPSDIAVEWESNGQPENNYKTTVPVLDSDGSFRLASYLTVDKSRWQQGNVFSCSVMHEALHNHYTQKSLSLSPGK
notes: made in CHO cells; also called VHH6-mono-Fc; hpIgR_181

Columns and labels:
hpIgR_D2-D3 [1] = target: T1, hpIgR_D2-D3; experiment: BLI (Octet RED384), 1:1 fit, 25 C, PBS
Experimental: (§1) Bio-layer Interferometry was performed as follows. […] Data were collected with Octet Data Acquisition version 7.1.0.87 (ForteBio) and analyzed using Octet Data Analysis version 7.1 (ForteBio). To measure binding kinetics between VHH-mono-Fc molecules and HIS-tagged pIgR proteins, VHH-mono-Fc was immobilized on amine-reactive generation-2 (ARG2) biosensors according to manufacturer's instructions and increasing concentrations of pIgR proteins were exposed to sensor-immobilized VHH. In some cases, HIS-tagged pIgR proteins were immobilized on anti-HIS biosensors and exposed to increasing concentrations of VHH-mono-Fc molecules. Association and dissociation rates were measured by the shift in wavelength (nm). […] All reactions were performed at 25° C. in PBS.

[2] = target: T4, human pIgR extracellular domain (ECD) (human, UniProt P01833 19-638); experiment: BLI (Octet RED384), 1:1 fit, 25 C, PBS
T4 construct: also called hpIgR ECD
Experimental: as §1

[3] = target: T5, human pIgR extracellular domain 1-domain 2 (D1-D2) (human, UniProt P01833 19-240); experiment: BLI (Octet RED384), 1:1 fit, 25 C, PBS
T5 construct: HIS-tagged construct made in HEK293 cells
Experimental: as §1

[4] = target: T6, human pIgR extracellular domain 2 (D2) (human, UniProt P01833 128-242); experiment: BLI (Octet RED384), 1:1 fit, 25 C, PBS
T6 construct: HIS-tagged construct made in HEK293 cells; also called hpIgR domain 2
Experimental: as §1

[5] = target: T7, human pIgR, full-length, on cells (human, UniProt P01833 19-764); experiment: cell-based or functional assay
[6] = target: T4, human pIgR extracellular domain (ECD); experiment: BLI; summary table, repeats Table 1
[7] = target: T4, human pIgR extracellular domain (ECD); experiment: ECL (MSD), hpIgR-ECD coated, anti-VHH detection
Experimental: (§2) To check whether VHH recognizes a buried epitope on pIgR, EC₅₀ values were measured for VHH-mono-Fc molecules binding to hpIgR-ECD protein by electrochemiluminescence using two different detection antibodies, an anti-Fc antibody and an anti-VHH antibody. pIgR ECD (10 μg/ml in PBS) was coated on high-bind MSD plates for 2 hours at RT with 1000 rpm, incubated with blocking buffer for 1 hour at RT, incubated with VHH-mono-Fc molecules (increasing concentrations in PBS) for 2 hours at RT with 1000 rpm, washed 3× with PBT, incubated with ruthenylated secondary antibody (2 μg/ml in PBS) for 1 hour at RT with 1000 rpm, washed 3× with PBT and read plates in 40 ul reading buffer using the MSD imager. EC50 was calculated by fitting log VHH concentration versus log ECLU in Prism (Graphpad). The increase in EC₅₀ (>50-fold) due to anti-VHH detection was used as a measure to determine whether VHH recognized buried epitope on pIgR.

hpIgR_D2-D3 [8] = target: T1, hpIgR_D2-D3; experiment: BLI (Octet RED384), 1:1 fit, 25 C, PBS; column kdis
[9] = target: T4, human pIgR extracellular domain (ECD); experiment: as above
[10] = target: T5, human pIgR extracellular domain …; experiment: as above
[11] = target: T6, human pIgR extracellular domain 2 (D2); experiment: as above
[12] = target: T4, human pIgR extracellular domain (ECD); experiment: BLI (Octet), VHH-mono-Fc and hpIgR ectodomain
[13] = target: T4, human pIgR extracellular domain (ECD); experiment: ECL (MSD), anti-VHH detection against anti-Fc detection
[14] = target: T7, human pIgR, full-length, on cells; experiment: cell-based or functional assay; remark: listed apart in the source
[15] = target: T7, human pIgR, full-length, on cells; experiment: flow cytometry on MDCK-hpIgR cells; summary table, repeats Table 1
[16] = target: T7, human pIgR, full-length, on cells; experiment: cell-based or functional assay; remark: listed apart in the source
[17] = target: T4, human pIgR extracellular domain (ECD); experiment: BLI; summary table, repeats Table 1; remark: listed apart in the source
[18] = target: T7, human pIgR, full-length, on cells; experiment: flow cytometry on MDCK-hpIgR cells
hpIgR_D3 = target: T2, hpIgR_D3; experiment: ECL (MSD) heat map, HIS-tagged construct captured via anti-HIS, anti-human-Fc detection;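 further: VHH-mono-Fc molecules tested at 100 µg/ml for 2 h on captured His-tagged pIgR constructs (10 µg/ml), read-out as electrochemiluminescence units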
[19] = target: T8, human pIgR extracellular domain 1 (D1) (human, UniProt P01833 19-127); experiment: as above
T8 construct: HIS-tagged construct made in HEK293 cells; also called hpIgR domain-1

[20] = target: T9, human pIgR extracellular domain 5 (D5) (human, UniProt P01833 460-565); experiment: as above
T9 construct: HIS-tagged construct made in HEK293 cells; also called hpIgR domain 5

[21] = target: T3, human pIgR extracellular domain …; experiment: as above
Experimental: The Electrochemiluminescence assay was performed as follows. A meso-scale discovery (MSD) platform was used for conducting epitope mapping and epitope burial studies. To test the binding of VHH-mono-Fc molecules to purified pIgR protein constructs, Streptavidin MSD plates were coated with a biotinylated anti-HIS antibody (2 μg/ml in PBS) for 1 hour at RT with 1000 rpm, washed 3× with PBT (PBS+0.1% Tween-20), incubated with blocking buffer for 1 hour at RT, incubated with His-tagged pIgR proteins (10 μg/ml in PBS) for 2 hours at RT with 1000 rpm, washed 3× with PBT, incubated with VHH-mono-Fc molecules (100 μg/ml in PBS) for 2 hours at RT with 1000 rpm, washed 3× with PBT, incubated with ruthenylated-anti-human-Fc antibody (2 μg/ml in PBS) for 1 hour at RT with 1000 rpm, washed 3× with PBT and read plates in 40 ul reading buffer using the MSD imager. ECLU values were plotted as a heatmap.

[22] = target: T7, human pIgR, full-length, on cells; experiment: flow cytometry on MDCK-hpIgR cells; summary table, repeats Table 1; remark: listed apart in the source
[23] = target: T4, human pIgR extracellular domain (ECD); experiment: ECL (MSD), hpIgR-ECD coated, anti-Fc detection
Experimental: as §2

T5 sequence (P01833 other isoform, or with tags, fused parts or gaps limits assumed): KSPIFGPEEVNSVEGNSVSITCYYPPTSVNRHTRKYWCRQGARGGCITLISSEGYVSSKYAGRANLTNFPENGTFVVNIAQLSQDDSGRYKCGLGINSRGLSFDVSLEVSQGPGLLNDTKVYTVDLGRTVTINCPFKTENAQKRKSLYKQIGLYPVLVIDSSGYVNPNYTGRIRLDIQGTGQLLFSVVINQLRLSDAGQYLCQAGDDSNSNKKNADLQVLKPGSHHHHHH
T4 sequence (P01833 other isoform, or with tags, fused parts or gaps): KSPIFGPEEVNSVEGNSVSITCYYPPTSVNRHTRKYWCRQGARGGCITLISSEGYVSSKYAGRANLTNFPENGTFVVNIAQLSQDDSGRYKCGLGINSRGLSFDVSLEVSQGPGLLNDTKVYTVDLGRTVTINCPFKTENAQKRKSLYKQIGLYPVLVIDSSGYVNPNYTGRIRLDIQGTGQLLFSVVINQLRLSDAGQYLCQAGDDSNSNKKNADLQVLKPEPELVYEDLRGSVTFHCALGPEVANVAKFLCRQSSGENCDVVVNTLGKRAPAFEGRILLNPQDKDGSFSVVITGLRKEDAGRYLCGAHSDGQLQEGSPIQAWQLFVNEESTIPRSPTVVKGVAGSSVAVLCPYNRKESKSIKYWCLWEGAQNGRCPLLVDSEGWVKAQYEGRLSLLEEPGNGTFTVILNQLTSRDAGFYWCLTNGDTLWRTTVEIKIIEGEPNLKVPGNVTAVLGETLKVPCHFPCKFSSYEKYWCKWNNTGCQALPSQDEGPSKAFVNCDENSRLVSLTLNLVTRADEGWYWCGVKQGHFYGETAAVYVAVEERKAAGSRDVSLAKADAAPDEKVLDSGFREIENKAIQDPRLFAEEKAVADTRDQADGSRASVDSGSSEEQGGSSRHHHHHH
T7 sequence (P01833 19-764): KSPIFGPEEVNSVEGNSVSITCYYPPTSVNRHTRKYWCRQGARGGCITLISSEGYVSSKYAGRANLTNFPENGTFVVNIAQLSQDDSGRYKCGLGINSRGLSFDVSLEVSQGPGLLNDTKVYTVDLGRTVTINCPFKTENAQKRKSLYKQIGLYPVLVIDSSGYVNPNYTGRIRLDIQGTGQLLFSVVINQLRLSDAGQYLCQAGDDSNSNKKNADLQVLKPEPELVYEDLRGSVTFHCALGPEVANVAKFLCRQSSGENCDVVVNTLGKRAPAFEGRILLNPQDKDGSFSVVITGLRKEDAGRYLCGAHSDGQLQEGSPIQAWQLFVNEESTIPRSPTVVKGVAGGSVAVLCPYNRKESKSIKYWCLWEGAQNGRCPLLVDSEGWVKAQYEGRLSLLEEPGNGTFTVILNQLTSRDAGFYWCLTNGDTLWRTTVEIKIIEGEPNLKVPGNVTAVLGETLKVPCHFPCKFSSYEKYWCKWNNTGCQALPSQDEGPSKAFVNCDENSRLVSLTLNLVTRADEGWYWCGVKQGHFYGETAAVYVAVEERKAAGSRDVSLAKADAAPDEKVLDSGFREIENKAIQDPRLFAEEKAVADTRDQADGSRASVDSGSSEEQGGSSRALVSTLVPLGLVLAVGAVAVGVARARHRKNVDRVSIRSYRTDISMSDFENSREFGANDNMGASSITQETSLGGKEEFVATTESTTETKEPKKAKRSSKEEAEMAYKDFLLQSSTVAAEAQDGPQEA
T8 sequence (P01833 other isoform, or with tags, fused parts or gaps limits assumed): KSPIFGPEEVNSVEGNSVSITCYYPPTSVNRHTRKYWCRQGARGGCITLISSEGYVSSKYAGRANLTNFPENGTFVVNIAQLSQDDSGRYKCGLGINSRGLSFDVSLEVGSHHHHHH

Row | Binder | Kd (hpIgR_D2-D3 [1]) [nM] | kon (hpIgR_D2-D3 [1]) [M⁻¹ s⁻¹] | Kd [2] [nM] | kon [2] [M⁻¹ s⁻¹] | Kd [3] [nM] | kon [3] [M⁻¹ s⁻¹] | Kd [4] [nM] | kon [4] [M⁻¹ s⁻¹] | For. Trans. (Fold Incr.) [5] [fold] | Rev. Trans (Fold Incr.) [5] [fold] | Kd [6] [nM] | EC50 [7] [nM] | koff (hpIgR_D2-D3 [8]) [s⁻¹] | koff [9] [s⁻¹] | koff [10] [s⁻¹] | koff [11] [s⁻¹] | Kd [12] [nM] | Fold change in EC50 [13] [fold] | increase in their apical concentration relative to control VHH (MDCK-hpIgR monolayers) [14] [fold] | EC50 [15] [nM] | also measured
1 | B1 | 86.1 | 14000 | 76 | 14400 | 77.3 | 19200 | 83.8 | 19100 | 15.1 | 8 | 22 | 206 | 0.0012 | 0.0011 | 0.00149 | 0.0016 | 22 | 180 | > 10 | 32.9 | Transcytosis (Fold Incr.) [16]: 12.6 fold; Kd [17]: 22 nM; EC50 [18]: 32.9 nM; binding result (hpIgR_D3): no binding (tested: 100 ug/ml (single concentration)); binding result [19]: no binding (tested: 100 ug/ml (single concentration)); binding result [20]: no binding (tested: 100 ug/ml (single concentration)); binding result [21]: no binding (tested: 100 ug/ml (single concentration)); EC50 [22]: 32.9 nM; EC50 [23]: 1.1 nM
2 | B2 | 71.5 | 34800 | 48.9 | 44700 | 63.2 | 40000 | 68.1 | 39500 | 25.6 | 14.6 | 27 | 4190 | 0.00249 | 0.00219 | 0.00253 | 0.00269 | 27 | 1060 | > 10 | 11.5 | Transcytosis (Fold Incr.) [16]: 30.7 fold; Kd [17]: 27 nM; EC50 [18]: 11.5 nM; binding result (hpIgR_D3): no binding (tested: 100 ug/ml (single concentration)); binding result [19]: no binding (tested: 100 ug/ml (single concentration)); binding result [20]: no binding (tested: 100 ug/ml (single concentration)); binding result [21]: no binding (tested: 100 ug/ml (single concentration)); EC50 [22]: 11.5 nM; EC50 [23]: 3.9 nM

From patent US20220324970A1 (Janssen / Centocor, published 2022)
